Data on one molecule can be found in paper PMC3553987.

For this series, the target named is c-Myc;Max isoform (human;human, UniProt P01106;P61244 16-454;2-160, |). Description: TIRF-PBM.
Sequence of c-Myc;Max isoform (P01106 16-454, chain 1 of 2): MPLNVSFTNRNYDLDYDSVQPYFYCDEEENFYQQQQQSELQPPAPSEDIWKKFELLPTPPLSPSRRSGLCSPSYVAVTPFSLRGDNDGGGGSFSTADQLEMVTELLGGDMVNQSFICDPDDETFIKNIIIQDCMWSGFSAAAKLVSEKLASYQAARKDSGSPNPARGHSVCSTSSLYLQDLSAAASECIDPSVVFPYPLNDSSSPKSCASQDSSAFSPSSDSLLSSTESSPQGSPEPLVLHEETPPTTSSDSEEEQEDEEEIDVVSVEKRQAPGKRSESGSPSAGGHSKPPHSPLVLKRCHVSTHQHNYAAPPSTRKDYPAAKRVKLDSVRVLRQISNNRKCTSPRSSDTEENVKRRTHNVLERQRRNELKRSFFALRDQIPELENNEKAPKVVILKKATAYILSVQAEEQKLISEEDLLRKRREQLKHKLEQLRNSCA
Sequence of c-Myc;Max isoform (P61244 2-160, chain 2 of 2): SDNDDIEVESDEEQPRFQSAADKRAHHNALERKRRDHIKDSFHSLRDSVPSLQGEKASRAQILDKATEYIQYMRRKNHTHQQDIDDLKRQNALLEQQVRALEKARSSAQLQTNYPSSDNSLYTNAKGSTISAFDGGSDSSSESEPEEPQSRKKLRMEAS

B1: sequence 7 (12 A repeat) (dsDNA)
DNA 1: GCTACGAGCGCAAAAAAAAAAAAATGATAGCAAGCTCAAGTCAATCGGTCC
DNA 2: GGACCGATTGACTTGAGCTTGCTATCATTTTTTTTTTTTTGCGCTCGTAGC
modifications: 5' amino on one strand, coupled to hydrogel
Consider B1, for which the binding result is “binds”.
